Measurements published in the NTF2 design screens of Basanta et al. (2020).

Experiment: protease stability score; higher = more stable; yeast display proteolysis, trypsin and chymotrypsin;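 also: relative to predicted unfolded state with 0 unfolded-like and 1 meaning tenfold more protease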

Sequence | protease stability score
DESTENLREFIRVLLHLWETGNEDEFLRMADPNALVYDEHEYDHGWKAWKKLLEQYDVVTSIIPRHIRLIGDKVDIHTNLYMLINGRTVEVHTELLVKKIDGQWRIKFFLIR | 1.63
SEEEDMKRKLAEIFLHNELTGNEDRLMELLDPNTRMEFNGREVHGREQISEVLRRWLEEIRIDDSKLHDIRVINGVAHIDVRLRGTVDGRHTILQVHLYLFVVNGRIKSFRIEIR | 1.53
HEKEKLEKDIWRLLVEWLETGNEHEFEKFMDPDARLFEDVDGKELRIHGREIAMEILHHLWRDFGVDHLVLKKASIIDGVVHLDVILDVNGRRIDTRIIFVIINGRIHSTHIHIR | 1.52
DEEKKKFEHWVKLVIHALLTGDEKHLNDMADPNVKVRSVFNGRHVELHGRENEHRWLEKLRKRLGVDHIEITDSVIQGDKVEIDSRYIQGDKEFKSSIHIVVVNGRTHENEFIFH | 1.1
SEHDNLMKEKLTLMEHTLMTGDEEVWRELLDPEALTTVDGQHFHGREEVVKFLRKVRRRVDHITSIEIESIDPQGEKLHLDGRNRIKIDGREIELNVVIIMRKINGRWFLRSWNVV | 1.22
SEEEEEMRHHLEIFIESLRTGDEDEIANNADPNWINVVGDKENIGREHILTWYERFYEEIRIHDMKIRHVDVQGEKMRVEGELNKDVNGREIRTEHRWEFDIVNGRLRSLQVRVK | 0.919
DEDTEVIERSITHWMKVLETGDWEDIERNADPNARMDINGREFHGREEVSRHLREDLDRLGIERVRVEIKHYRVQGEFIDIHGILRQGEYESKIHVRASKINGKWVLESLEVV | 0.078
DDKEKHVKRISEILLHTWHTGNEESLNRMFDPEVKVYWNGRELVGRENSSKHLAEEKRRADHVEIEIKDVHVIGNKMIIDGTLRRHIGDYQDESEVHIHIEVVDGRIKRLELRIK | 1.1
DEKDEFNHKIAHQFSESLHTGDFKLLESLFDPNVRSDINGREIIGMEELVHFWEEWKRKFPNAKERYRTESIEHQGEKTISNMRVDLHQGDFHLHREWRVEIHIIDGVVKEVRIENR | 1.23
SEEHKRIEKLLRRLQDALKTGDERDIMNLLDPNVRIEINGKDLIGREVWAKIMHHLRVEDSEINIHHSRSQGNFLESDIETHRHIHVDGKDIDLTWEEHVVIIKVDGKWKIERVHIR | 1.17
SEWDRLMKRIAEDITTALQTGDEDRMHELFDPHARMILLIGDFELHYHGMHEISRVLEEHLRRYDHLEWHIRHVDTQGNKVRVESEMRLIIGDKSETRDYRIILIVINGRNKSVEFRVH | 1.49
DEDEEEVIKFFQEFLRDELTGDWHEVHRMLDPHARLDINGKHFVGREDVTEFFKKLVNELRIHDVHIKDVRIIGEKASIDTSVDGEVNGRKRHFETRIIILKIDGQWFLHEVHMR | 1.47
SEDEERTRRISKHMLELYKTGDEDTWIKEADPNTINKIHAENHRIENHGREEVHKVLVELWERLGVKHVDLKDFDMQGEKVIIFIELRAENRIVTNIIRIVIIDGKIKSIEIELRFI | 1.21
DEEHEMAKRASEKFVKDWVTGNFEVLRENLDPHVRLDINGVKVHGRELVWHYIAKRLRFMGVDHTEMEVHHREVQGNKLITDMEERIHVGDYHEERRVVLISQKINGKWLVKSIHEE | 1.56
SEEKKQSDEAWELYIKSVETGDFRMLHELLDPNVKIHIGDKDIHGREYIMEHMLKFGVTTQSRFEVKDIKLQGDFVIIHGHIRSIFHFNGRTLRVEHDVEIFATKFDGRWWTHSVEVN | 1.18
DEDRRDIDDFLRLMLEATHTGDFKSFLELADPNMRIQIGDKEMVGRENIERWFEEDHRQAGIQRVETELRVRSKLLIGNKMHVDIEIRRRYNGVEEVYDVELILLKYNGVWWLEEFRVR | 1.58
TEDEHHEELIAKELFHNFLTGNEDLLSEMADPNTKSDIDGKHDVGREEMSRSLIEFLDKMGIKHLVLTDHRAVNGKVILHERVHVNGRDIEVNLTWDVWNGRIKRVEIRITHR | 0.982
DELTHAVTRFHKETMDAVRTGNEEWHSRLLDPNTRIHIGEFNNVGMEQVIEILRRVKNLRIHHVHLDHIDFYDGRADIHGTVHGIWNGRHRKVKHEHFLLKIDGVWYLEEIRVE | 0.371
TEEDRFAHEFVRKWIENFLTGNEEKLHELADPNMKIDVGDKHLHGMEEWTRFLRDLGWRTEIRLRDIEVQGNKAFIRGEVHISINGRTDKTETRIILHVVNGRLKEVYVHHQ | 1.53
TEDERDMHEAMERHLQDLRTGNWEDVHRQVDPNVRLVFNGKEVHGREEYVEHTVRLAERADHIELRIRHIDTQGDKLRVEGELIIRQGDKTFIHEVELLFLKVNGRWIIHSFEIK | 1.55
SEEEHELKHWMKLFKHMIETGDWDSLVHYLDPHTRMHVGEFHHHGRHLMLKAFHDFLREMGAKHSDHKDSEITIQGDKVELTLDTRSQVGDKEFNVRIININRKVNGRWIIHSIIIEVE | 1.09
DEETEKDKFLSEVFRHSLMTGDWESELKYADPHARTVVNGRTIHGMRESWEHLKELLERLGAKYIKIRDMDSHIQGDKVLININGELHVGDKTIETRIHLIVRKVNGQWHIEELRFDFK | 0.993
DEDEEMFHRAVRLLLEHSRTGDEELTTKMADPHVKVDINGRDLIGRESYSRWWSEKAEQMRIDFRFRRVEVFDGVIFIDFKLIVDVNGRRLEFELHILILKIDGRWIIKEVHVK | 0.68
DEQKHVFNNVLRWLLESLETGDEEDLERLMDPNTRLHINGQDLHGREALRKHIEHRLKSLGVDHVHLRVHDVHIIDGKIEVDSELDLKIGDKEIRMKVRLIALKINGRWLVKHFDVT | 1.29
DDIHRIIKTALELWLRVLETGDERLIHELLDPDARFVINGKFYHGREVWEEERRQIDHIRMDTFHLKHIDLVNGRLRIEGHIVFTVHVNGRTTRREEDVHFILTKFNGKWEMQSLNIE | 1.15

Sequence | protease stability score
SEEDQLLHHQMETWRHMIHTGDEELLERFLDPTVRIEYDGQEHHGRETAAHLFRELAEKLGIEFEDLEIHETEIQGDKIRVDTILYVDINGRKLVFRTHTVWEKINGRWILREIKIE | 0.043
DEDERVMRTLLELLLRSHNTGDEDSYKQLLDPDTRVHVDGVDFHGMEFARTLARHWRVKHVELKDVRSQGNKIEADIHTVGVINGQELRTETHIITEKVNGRWVLHSISIR | 1.46
SEEEKLAHEYVRHIIELLETGDEQNVQDLMDPNARSVMIIDGREIYTHGRDAFSHLLKLMGFDHSRLKDIKIYDGRVHSHIEVSVNGREVEVHLIVRKVDGRWVLQETRFHLH | 1.19
SELEELSKEALERHNKDLRTGDWEELWRLLDPNVKLIVNGRHVHGREDATKFLLDWVRQVDHIRSIHIEDYKFQGNKLILHVRYQMDVDGKRDSREMTIYASKVDGRWIVESIEFR | 1.64
SEYEHEAREVMHRLIHATETGDEEQILRMIDPHVRIDINGVELIGWRHLEEYLRRIDVVYIRIDARRVDVQGDKIRVDTEMDVEVDYDGRKFRHKEKTIIFMHKVDGRWLITSFHVL | 2.7
SEEERTQTLAMKIIWDVLLTGDWKELFDNMDPHARMEINGRKFHGREEIIRHLRELHNKLGIDRVESHLHSVHYVDGVIHVDIHLHYNGKDERIEIIAMKYNGRWTLTEVNYREE | 2.13
SEEEKYARKAIELMKHNYETGDFEKLSRLMDPHVRLHIGDKSHHGMDEFVHWVSQFDHMEMNVHDVRVQGDKIEIIGHLVVRIDGRERRTETYIHLHKFDGQWIVHTIEVR | 1.34
DEEEEKLRELIRIFIEDWKTGDFDSLAHLLDPNARLDIHINGVHLHYHGREKILEFLWRWFERFKNARVELKRIRIVNGRSEIDSETTFNGRSSDMEIDIVIINGRVRSERFKVG | 1.47
SEDTEKIRKFEELLIRLLETGDFDTLTRLLDPHVRYVYNGQDFHGWEFLLHYLRELGVKHFHFRDFRIQGDWAHIDSEVVVGDKHYKTRIVLLKFDGRWRLHMIEVV | 2.44
DEDTHYARHIMELIIRNFITGDEDDLLRLMDPNTRLHINGVDNHGREEIKRDLERWWHRYPNITVIIRVEHMTAIDGKAHSEMRVQIHYNGVTYSRETRVILIVINGRLHSVEFRID | 1.11
SRIEKLIEHLVHLWLEIWRTGDEHSFTRLLDPHVRLRIGDKHFIGREDVVKFLRDHEKEWREDDVEIRDIRTQGDFLEVEITITGRFNGRDITREFRITMIVVDGRVKEIRISYE | 2.05
SEEDKLSEELARRWIHLFETGDEETILHLADPHMKYILIINGRNEIHHGMKMMSEELKRIKGARFEIKRIEVQGDKVHLDVRIRIDGVEIDSEIDLKIVDGRLRELKVTIK | 2.07
NEEEEESKWAYEEMIKVVKTGDEERLKELADPHTRVHMLVNGRLHNLHGREFLVLAWRLLGFDHLELKRMHVEVVNGRVHINLHGHVEINGRTHTLHIHIDAEKVDGRWIVRRVEIRSE | 1.5
DEDEENARRFIHELSRILETGDEERLDEMADPDVRIIIGEKHLHGREEFRKWMRHLLKRVKNMQIEVQLTSSEIVGEWVNLDTTLIIRVGDKHYEHRTVVIVLKIDGRWFLHQIHFK | 1.79
EEEEEFLRIMIELFLRTVKTGDEDAFNKLADPNVKSNINGVTLHGMERHHEWLRIELEKAGVERVDTRLDDKNIIDGRVIVHGTMFYNGRTITVHNIWHKINGRWVLETIEIR | 1.6
DELQHELERFLEEESRMLKTGDEKRLLELADPDVRVHIDGVDMVGWEALETMWRILKERLGADHVEDVKIRHVDLQGDKADMDVEFDMIQGDKKHYLRSRLIVTKINGRWLLRYVIIK | 1.75
SEEEETLEELTRRLLHTWVTGDEQTLKDLADPDVRLIFNGQTYHGREQAERIIKELLDKLGVDRVHSEPRRFNIINGRIRMHVRIHYGDKEYIVHIIATKIDGRWTIKNVIFD | 1.24
SEEEDKARHLFDRLVHAWHTGDWRELKHLLDPNAKFVLEYGDKKETYHGMDEEIRYLEELHKRVDHIHFLIRHVDIQGDKLRVEGELEYRVGDYERRIPTSYEVIVIDGRIHEIISRIH | 2.11
DDIEKDIREVLDILIRAFQTGDEDKILELFDPHARVDVGEYHNHGWERVEEWMHRVDHIDVRRLEIKHFHHINGRIVLHTHFDGILTINGREIHTETEVHIILVKINGKWYFKEISHH | 2.12
SEEEEIARKIADIFFKVMQTGDEDHWLELFDPHTRFESDFNGRTVEIHGRERVREWKRKLEEDLGLTRFEIILRDSHVVNGVIHMDIEVRINGKTRRWIIDLIVINGRVKSLRVEIR | 1.15
EDDERELKLMLELLLHSQHTGDFKEAERLADPNARFEFNGREFHGREQFHSFIWKLGVDHSEVKRVRLQGEFLTLHIKHNVNGKEIDMIWYNVKVNGKWLIHHLEVR | 1.21
DEMEEESHTVLKLIVESFRTGDEEEVRHLADPNVRLDVDGQRNHGWKMLLKFFRQIRWHDVELHDIELQGDKMHIIGHVDGNVNGRRRRLDTHILLVKIDGKWRLELVHIH | 1.55
DEREEEARKWIELFLRHLLTGDEDSLQELADPHTRNIVGDKDLIGWRFMIKYVRDVRERFDHIEFHITRMEVQGDKVRVDVRIINIVGDKHFEIESHIVTEKINGKWRLKSMELR | 1.51
SEEEEHSKFLAEILLELMRTGDWRTFEELVDPNARLEIIQGDFTIDIHGREEVSKFLKNEVEQFKNMRVELHRQSAQGNKLHIDGRLKVGDKSHELRIHINVINGKLKQVKIEID | 1.72
SEDERFWKKALDDLLDTIRTGDEHKFREMMDPNVRVHIGDKHFHGREQASEQVVRLGVDHIELRRVDFQGDYLEIHGHLRVNGRETRIHFVLLKIDGRWVVKEVRQE | 2.21
